From the supplement of paper PMC11908140

B1: library; numbered along this chain (parent)
chain: MRKPRAAVGSGHRKQAASQEGRQKHAKNNSQAKPSACDGLARQPEEVVLQASVSSYHLFRDVAEVTAFRGSLLSWYDQEKRDLPWRRRAEDEMDLDRRAYAVWVSEVMLQQTQVATVINYYTGWMQKWPTLQDLASASLEEVNQLWAGLGYYSRGRRLQEGARKVVEELGGHMPRTAETLQQLLPGVGRYTAGAIASIAFGQATGVVDGNVARVLCRVRAIGADPSSTLVSQQLWGLAQQLVDPARPGDFNQAAMELGATVCTPQRPLCSQCPVESLCRARQRVEQEQLLASGSLSGSPDVEECAPNTGQCHLCLPPSEPWDQTLGVVNFPRKASRKPPREESSATCVLEQPGALGAQILLVQRPNSGLLAGLWEFPSVTWEPSEQLQRKALLQELQRWAGPLPATHLRHLGEVVHTFSHIKLTYQVYGLALEGQTPVTTVPPGARWLTQEEFHTAAVSTAMKKVFRVYQGQQPGTCMGSKRSQVSSPCSRKKPRMGQQVLDNFFRSHISTDAHSLNSAAQ

Variants of: B1
Experiment: 8OG:A repair function score (normalized; synonymous = 0, nonsense = -1) (normalized log-likelihood score); higher = more repair activity (WT-like)
Settings: with 8OG:A DNA repair reporter (GFP) in HEK-293 MUTYH KO cells
Summary of the method: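 MUTYH knockout HEK-293 cells carrying lentiviral MUTYH cDNA NNN codon-scan libraries were grown with 10 pg/ml doxycycline and co-transfected with mCherry and a GFP reporter of 8OG:A repair. Viable mCherry+ cells were sorted at 72 h into GFP+ (repair) and GFP− bins, with three replicates per tile, and tile amplicons were sequenced. Rosace fitness scores for each tile were turned into a normalized repair function score anchored on the synonymous and nonsense distributions. Synonymous medians were set to 0 and nonsense medians to -1, and variants below 300 counts per million at the start were dropped.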

| Variant | 8OG:A repair function score |
| --- | --- |
| MRKPRAAVGSGHRKQAASQEGRQKHAKNNSQAKPSACDGLARQPEEVVLQASVSSYHLFRDVAEVTAFRGSLLSWYDQEKRDLPWRRRAEDEMDLDRRAYAVWVSEVMLQQTQVATVINYYTGWMQKWPTLQDLASASLEEVNQLWAGLGYYSRGRRLQEGARKVVEELGGHMPRTAETLQQLLPGVGRYTAGAIASIAFGQATGVVDGNVARVLCRVRAIGADPSSTLVSQQLWGLAQQLVDPARPGDFNQAAMELGATVCTPQRPLCSQCPVESLCRARQRVEQEQLLASGSLSGSPDVEECAPNTGQCHLCLPPSEPWDQTLGVVNFPRKASRKPPREESSATCVLEQPGALGAQILLVQRPNSGLLAGLWEFPSVTWEPSEQLQRKALLQELQRWAGPLPATHLRHLGEVVHTFSHIKLTYQVNGLALEGQTPVTTVPPGARWLTQEEFHTAAVSTAMKKVFRVYQGQQPGTCMGSKRSQVSSPCSRKKPRMGQQVLDNFFRSHISTDAHSLNSAAQ [Y428N] | -1.01 |
| MRKPRAAVGSGHRKQAASQEGRQKHAKNNSQAKPSACDGLARQPEEVVLQASVSSYHLFRDVAEVTAFRGSLLSWYDQEKRDLPWRRRAEDEMDLDRRAYAVWVSEVMLQQTQVATVINYYTGWMQKWPTLQDLASASLEEVNQLWAGLGYYSRGRRLQEGARKVVEELGGHMPRTAETLQQLLPGVGRYTAGAIASIAFGQATGVVDGNVARVLCRVRAIGADPSSTLVSQQLWGLAQQLVDPARPGDFNQAAMELGATVCTPQRPLCSQCPVESLCRARQRVEQEQLLASGSLSGSPDVEECAPNTGQCHTCLPPSEPWDQTLGVVNFPRKASRKPPREESSATCVLEQPGALGAQILLVQRPNSGLLAGLWEFPSVTWEPSEQLQRKALLQELQRWAGPLPATHLRHLGEVVHTFSHIKLTYQVYGLALEGQTPVTTVPPGARWLTQEEFHTAAVSTAMKKVFRVYQGQQPGTCMGSKRSQVSSPCSRKKPRMGQQVLDNFFRSHISTDAHSLNSAAQ [L313T] | -0.317 |
| MRKPRAAVGSGHRKQAASQEGRQKHAKNNSQAKPSACDGLARQPEEVVLQASVSSYHLFRDVAEVTAFRGSLLSWYDQEKRDLPWRRRAEDEMDLDRRAYAVWVSEVMLQQTQVATVINYYTGWMQKWPTLQDLASASLEEVNQLWAGLGYYSRGRRLQEGARKVVEELGGHMPRTAETLQQLLPGVGRYTAGAIASIAFGQATGVVDGNVARVLCRVRAIGADPSSTLVSQQLWGLAQQLVDPARPGDFNQAAMELGATVCTPQRPLCSQCPVESLCRARQGVEQEQLLASGSLSGSPDVEECAPNTGQCHLCLPPSEPWDQTLGVVNFPRKASRKPPREESSATCVLEQPGALGAQILLVQRPNSGLLAGLWEFPSVTWEPSEQLQRKALLQELQRWAGPLPATHLRHLGEVVHTFSHIKLTYQVYGLALEGQTPVTTVPPGARWLTQEEFHTAAVSTAMKKVFRVYQGQQPGTCMGSKRSQVSSPCSRKKPRMGQQVLDNFFRSHISTDAHSLNSAAQ [R283G] | -0.364 |
| MRKPRAAVGSGHRKQAASQEGRQKHAKNNSQAKPSACDGLARQPEEVVLQASVSSYHLFRDVAEVTAFRGSLLSWYDQEKRDLPWRRRAEDEMDLDRRAYAVWVSEVMLQQTQVATVINYYTGWMQKWPTLQDLASASLEEVNQLWAGLGYYSRGRRLQEGARKVVEELGGHMPRTAETLQQLLPGVGRYTAGAIASIAFGQATGVVDGNVARVLCRVRAIGADPSSTLVSQQLWGLAQQLVDPARPGDFNQAAMELGATVCTPQRPLCSQIPVESLCRARQRVEQEQLLASGSLSGSPDVEECAPNTGQCHLCLPPSEPWDQTLGVVNFPRKASRKPPREESSATCVLEQPGALGAQILLVQRPNSGLLAGLWEFPSVTWEPSEQLQRKALLQELQRWAGPLPATHLRHLGEVVHTFSHIKLTYQVYGLALEGQTPVTTVPPGARWLTQEEFHTAAVSTAMKKVFRVYQGQQPGTCMGSKRSQVSSPCSRKKPRMGQQVLDNFFRSHISTDAHSLNSAAQ [C272I] | -1.3 |
| MRKPRAAVGSGHRKQAASQEGRQKHAKNNSQAKPSACDGLARQPEEVVLQASVSSYHLFRDVAEVTAFRGSLLSWYDQEKRDLPWRRRAEDEMDLDRRAYAVWVSEVMLQQTQVATVINYYTGWMQKWPTLQDLASASLEEVNQLWAGLGYYSRGRRLQEGARKVVEELGGHMPRTAETLQQLLPGVGRYTAGAIASIAFGQATGVVDGNVARVLCRVRAIGADPSSTLVSQQLWGLAQQLVDPARPGDFNQAAMELGATVCTPQRPLCSQCPVESLCRARQRVEQEQLLASGSLSGSPDVEECAPNTGQCHLCLPPSEPWDQTLGVVNFPRKASRKPPREESSATCVLEQPGALGAQILLVQRPNSGLLAGLWEFPSVTWEPSEQLQRKALLQELQRWAGPLPATHLRHLGEVVHTFSHIKLTYQVYGLALEGQTPVTTVPPGARWLTQEEFHTAAVSTAMKKVFRVYQGQQPGTCMGSKRSQVSSPCSRKKPRMGFQVLDNFFRSHISTDAHSLNSAAQ [Q498F] | -0.0629 |
| MRKPRAAVGSGHRKQAASQEGRQKHAKNNSQAKPSACDGLARQPEEVVLQASVSSYHLFRDVAEVTAFRGSLLSWYDQEKRDLPWRRRAEDEMDLDRRAYAVWVSEVMLQQTQVATVINYYTGWMQKWPTLQDLASAGLEEVNQLWAGLGYYSRGRRLQEGARKVVEELGGHMPRTAETLQQLLPGVGRYTAGAIASIAFGQATGVVDGNVARVLCRVRAIGADPSSTLVSQQLWGLAQQLVDPARPGDFNQAAMELGATVCTPQRPLCSQCPVESLCRARQRVEQEQLLASGSLSGSPDVEECAPNTGQCHLCLPPSEPWDQTLGVVNFPRKASRKPPREESSATCVLEQPGALGAQILLVQRPNSGLLAGLWEFPSVTWEPSEQLQRKALLQELQRWAGPLPATHLRHLGEVVHTFSHIKLTYQVYGLALEGQTPVTTVPPGARWLTQEEFHTAAVSTAMKKVFRVYQGQQPGTCMGSKRSQVSSPCSRKKPRMGQQVLDNFFRSHISTDAHSLNSAAQ [S138G] | 0.0657 |
